The numbers were not newly measured in publication PMC2862573, which cites them from elsewhere.

This series has as its target CCR2 loop-2 peptide (Homo sapiens).

As to MCP-1 (from UniProt P13500), the Kd was 22 µM.
